Assay results: PMC9780223

The substances below were run against purified recombinant PAPP-A free of STC2 (apo PAPP-A) (human) (UniProt Q13219) (assay: MST).
“4P1, peptide from the linker region of IGFBP4 (from UniProt P22692)” gave a Kd of 1.73 µM. With “4P2, peptide from the linker region of IGFBP4 (from UniProt P22692)” the Kd was 27.5 µM. “4P3, peptide from the linker region of IGFBP4 (from UniProt P22692)” gave a Kd of 162 µM. “5P1, peptide from the linker region of IGFBP5 (from UniProt P24593)” showed a Kd of 4.43 µM. Substance “5P2, peptide from the linker region of IGFBP5 (from UniProt P24593)” has a Kd of 17.3 µM. “5P3, peptide from the linker region of IGFBP5 (from UniProt P24593)” gave a Kd of 38 µM.
